Experimental findings from paper PMC9397949 are described below.

For the assay, the target named is ACE-2 receptor on the surface of Vero E6 cells (African green monkey (endogenous in Vero E6)). Briefly: flow cytometry on cells; about 10^6 Vero-E6 cells blocked with FACS buffer and 5% normal mouse serum, incubated with RBD (8 ug/mL in the methods; different concentrations in the results) 2 h at 37 C; detected with rabbit monoclonal anti-S1 and Alexa Fluor 488 anti-rabbit IgG; percent of positive cells.

In turn, “Recombinant SARS-CoV-2 Spike RBD (Pro330-Ser530), purified (from UniProt P0DTC2 330-530) (domain or fragment)” yielded a percent of cells bound of 60%.
As for “commercially available recombinant RBD expressed in insect cells (Cat No. Z03479, GenScript) (from UniProt P0DTC2) (domain or fragment)”, the figure is 78%.
